{
  "source": "patent US11485792B2",
  "about": "“Antibodies, uses thereof and conjugates thereof” (Polytherics Limited, priority 2016, dated 2022)",
  "molecules": {"B1": {"name": "ADC 34 (conjugate)", "heavy": "QVQLVESGGGVVQPGRSLRLSCAASGFTFSNYVMHWVRQAPGKGLEWVAIIWYDGSNKYYADSVKGRFTISRDNSKNTLYLQMNSLRAEDTAVYYCAGGYNWNYEYHYYGMDVWGQGTTVTVSS", "light": "DIQMTQSPSSLSASVGDRVTITCRASQGITNYLAWFQQKPGKAPKSLIYAASSLQSGVPSKFSGSGSGTDFSLTISSLQPEDFATYYCQQYNSYPITFGQGTRLEIK", "modifications": "non-natural residues"}, "B2": {"name": "AB-P2: prior art anti-PSMA antibody, heavy and light chain SEQ ID No 37 and 38 (antibody, V domains shown)", "VH": "MELGLRWVLLVALLRGVQCQVQLVESGGGVVQPGRSLRLSCAASGFTFSNYVMHWVRQAPGKGLEWVAIIWYDGSNKYYADSVKGRFTISRDNSKNTLYLQMNSLRAEDTAVYYCAGGYNWNYEYHYYGMDVWGQGTTVTVSS", "VL": "MRVPAQLLGLLLLCFPGARCDIQMTQSPSSLSASVGDRVTITCRASQGITNYLAWFQQKPGKAPKSLIYAASSLQSGVPSKFSGSGSGTDFSLTISSLQPEDFATYYCQQYNSYPITFGQGTRLEIK"}},
  "key": {"PC-3 cells": {"test_system": "PC-3 cells", "experiment": "In vitro cell viability assay (CellTiter Glo), PC-3 (PSMA-negative control)", "assay_type": "cell-based", "settings": "Example 16; PSMA-negative PC-3 (negative control), 96 h", "from_the_text": "Loss of tumour cell viability following treatment with cytotoxic drugs or ADCs in vitro can be measured by growing cell lines in the presence of increasing concentrations of drugs or ADCs and quantifying the loss of proliferation or metabolic activity using CellTiter Glo® Luminescence reagent (Promega Corp. Technical Bulletin TB288; Lewis Phillips G. D, Cancer Res 2008; 68:9280-9290). The protocol describes cell seeding, drug treatment and determination of the cell viability in reference to untreated cells based on ATP synthesis, which is directly related to the number of cells present in the well.\nPSMA-positive LNCaP (clone FGC) and C4-2 cells, as well as PSMA-negative PC-3 cells were detached with TrypLE and resuspended in complete medium. Cells were counted using disposable Neubauer counting chambers and cell density adjusted to 10×10^4 cells/mL for LNCaP, 2×10^4 cells/mL for C4-2 and 1×10^4 cells/mL for PC-3 respectively. […]\nThe cell viability assay was carried out using the Cell-Titer Glo® Luminescence reagent, as described by the manufacturer's instructions, (Promega Corp. Technical Bulletin TB288; Lewis Phillips G. D, Cancer Res 2008; 68:9280-9290). Luminescence was recorded using a plate reader (e.g. Molecular Devices Spectramax M3 plate reader), and data subsequently analysed using a four parameter non-linear regression model. […]"}, "[1]": {"experiment": "Heat stress test with SEC analysis of aggregation", "assay_type": "physicochemical", "description": "Antibody samples (0.5 mg/mL in PBS) were incubated at 75° C. for 30 min followed by incubation in an ice-bath for 5 min prior to being analysed for their extent of aggregation. Analysis of antibody solutions was carried out by Size Exclusion Chromatography (SEC) and by turbidity measurements.\nSEC was performed using a TOSOH Bioscience TSK gel Super SW 3000 column. UV absorbance at 280 nm was monitored during an isocratic elution with a 0.2 M Potassium phosphate buffer, pH 6.8 (0.2 M potassium chloride and 15% isopropanol). The elution times and number of peaks indicate whether the sample contains aggregated, degraded or native antibody. The % area under the curve (Abs280) was used to determine the quantity of each species present in the SEC analysis."}, "[2]": {"experiment": "Fluorescence-based thermal-shift assay (Sypro Orange)", "assay_type": "physicochemical", "description": "Antibody was diluted to 1.5 mg/mL with DPBS, pH 7.1-7.5, and the concentration determined by measuring OD at 280 nm using a Nanodrop instrument. SEC analysis was carried out prior to thermal-shift analysis to confirm that over 99% of each antibody was present in their native form.\nAn RT-PCR instrument (StepOnePlus, Applied Biosystems) was set-up for a fluorescence-based thermal-shift assay using Sypro Orange dye as a fluorescent reporter. The assay was set-up in a PCR 96 well plate with five replicates per antibody sample and a final reaction volume of 20 μL per well. 13.5 μL of DPBS was pipetted in each well followed by the addition of 4 μL of antibody. […] Fluorescence data was collected throughout the temperature ramp, using an excitation filter at 470 nm and emission filter at 610 nm. […] The melting curves generated by the instrument software during the thermal unfolding of the antibodies result from the plotting of fluorescence vs. temperature. The melting temperature (Tm), is the temperature at which half of the antibody molecules are unfolded, (indicated by a 50% increase in fluorescence), and can be determined from the inflection point of the melting curve. The Tms are conventionally calculated by plotting a derivative plot. This is the change in fluorescence divided by the […] (the change rate) plotted on the Y-axis versus temperature on the X-axis. […]"}, "[3]": {"settings": "post stress test: 0.5 mg/mL in PBS, 75° C. for 30 min, then ice-bath 5 min, SEC"}},
  "data": [
    {"molecule": "B1", "values": [
      {"measurement": "IC50", "setting": "PC-3 cells", "value": "> 50", "unit": "nM"}
    ]},
    {"molecule": "B2", "values": [
      {"measurement": "Ab in aggregated form (%)", "setting": "[1]; [3]", "value": 100, "unit": "%"},
      {"measurement": "Ab in native conformation (%)", "setting": "[1]; [3]", "value": 0, "unit": "%"},
      {"measurement": "stability in heat stress SEC analysis (in words)", "setting": "[1]; propensity to aggregate upon heating and cooling", "value": "less stable than AB-03"},
      {"measurement": "Tm1 (° C.)", "setting": "[2]; first transition peak: unfolding of the CH2 and Fab domains", "value": "68.9 ± 0.1", "unit": "°C"},
      {"measurement": "Tm2 (° C.)", "setting": "[2]; second transition peak: unfolding of the CH3 domain", "value": "75.2 ± 0.1", "unit": "°C"}
    ]}
  ]
}
